# Data from patent US20260035463A1 (MINGHUI PHARMACEUTICAL HANGZHOU, published 2026).
# Molecular target: T1, recombinant human PD-1 protein (human, UniProt Q15116 25-167, limits assumed)
# T1 construct: The construct is not described; also called human recombinant PD-1
# Assay: screening of the anti-PD-1 phage display library; method not detailed
# T1 sequence (Q15116 25-167 limits assumed): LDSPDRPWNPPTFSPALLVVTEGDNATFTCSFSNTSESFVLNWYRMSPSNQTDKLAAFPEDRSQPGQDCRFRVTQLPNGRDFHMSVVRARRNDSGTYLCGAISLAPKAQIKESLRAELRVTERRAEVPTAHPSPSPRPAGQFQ
binder,measurement,value
"Anti-PD-1 sdAb VHH (VHH, Obtained from an alpaca phage display library; also called anti-PD-1 VHH antibody; VHH single-domain antibody) VHH: QVQLVESGGGLVQPGGSLRLSCATSGSRRSIYAMGWFRQAPGKGLEFVAGIGWAYATTYYADSVKGRFTISRDNTKNTLYLQMNSLRAEDTAVYYCAADLDHSGFDYWGQGTLVTVSS",binding result,binds
